Our source for the Kd values is publication PMC10320842.

To fix the notation:
B1: 13/42-mer non-G4 (mixed)
DNA 1: GTGAGATGTTGACCATGGGTGCGTCTGCGGCTGGCTCGAGGC
DNA 2: TTTGCCTCGAGCCAGC
B2: 23/42-mer non-G4 (mixed)
DNA 1: GTGAGATGTTGACCATGGGTGCGTCTGCGGCTGGCTCGAGGC
DNA 2: TTTGCCTCGAGCCAGCCGCAGACGCA
B3: 23/42-mer G4 (mixed)
DNA 1: TGAGGGTGGGTAGGGTGGGTGCGTCTGCGGCTGGCTCGAGGC
DNA 2: TTTGCCTCGAGCCAGCCGCAGACGCA
B4: 13/42-mer G4 (mixed)
DNA 1: TGAGGGTGGGTAGGGTGGGTGCGTCTGCGGCTGGCTCGAGGC
DNA 2: TTTGCCTCGAGCCAGC
B5: p/t non-G4 Myc (mixed)
DNA 1: AGCGTGCGTAGCGTGCGTTATGAGATGAT
DNA 2: ATCATCTCATA
B6: p/t non-G4 TBA (mixed)
DNA 1: TGCTTGCTGTGCTTGCTATGAGATGAT
DNA 2: ATCATCTCATA

In the first series the target is T1, hRev1 330-833 WT (human, UniProt Q9UBZ9 330-833).
T1 sequence: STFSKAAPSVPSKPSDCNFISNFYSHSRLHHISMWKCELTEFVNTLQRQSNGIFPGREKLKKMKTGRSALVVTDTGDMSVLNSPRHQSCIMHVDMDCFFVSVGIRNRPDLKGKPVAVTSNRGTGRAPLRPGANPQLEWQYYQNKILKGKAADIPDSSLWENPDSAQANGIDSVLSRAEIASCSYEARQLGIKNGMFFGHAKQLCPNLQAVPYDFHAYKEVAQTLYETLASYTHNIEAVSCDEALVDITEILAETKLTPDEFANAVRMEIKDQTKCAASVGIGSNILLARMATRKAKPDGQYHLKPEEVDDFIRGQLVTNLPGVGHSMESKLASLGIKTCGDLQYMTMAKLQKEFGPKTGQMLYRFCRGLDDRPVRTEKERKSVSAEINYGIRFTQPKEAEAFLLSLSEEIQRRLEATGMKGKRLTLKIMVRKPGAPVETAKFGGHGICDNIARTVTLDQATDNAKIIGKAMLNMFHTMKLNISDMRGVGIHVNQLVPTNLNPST
The series is described as follows: fluorescence polarization.
As for GTGAGATGTTGACCATGGGTGCGTCTGCGGCTGGCTCGAGGC (ssDNA) [ss-42-mer non-G4], binding was characterised by a dissociation constant (Kd) of 85 ± 11 nM.
Still for that read-out and setting: in the case of B1 it was 230 ± 30 nM.
On the same count and under the same terms, for B2 the value was 210 ± 30 nM; for TGAGGGTGGGTAGGGTGGGTGCGTCTGCGGCTGGCTCGAGGC (structured_DNA) [ss-42-mer Myc G4], 4 ± 1 nM; for B3, 88 ± 12 nM.
Same read-out and setting: in the case of B4 it was 31 ± 6 nM.

The next series concerns the target T2, hRev1 330-833 EY (human, UniProt Q9UBZ9 330-833, E466A;Y470A).
T2 sequence: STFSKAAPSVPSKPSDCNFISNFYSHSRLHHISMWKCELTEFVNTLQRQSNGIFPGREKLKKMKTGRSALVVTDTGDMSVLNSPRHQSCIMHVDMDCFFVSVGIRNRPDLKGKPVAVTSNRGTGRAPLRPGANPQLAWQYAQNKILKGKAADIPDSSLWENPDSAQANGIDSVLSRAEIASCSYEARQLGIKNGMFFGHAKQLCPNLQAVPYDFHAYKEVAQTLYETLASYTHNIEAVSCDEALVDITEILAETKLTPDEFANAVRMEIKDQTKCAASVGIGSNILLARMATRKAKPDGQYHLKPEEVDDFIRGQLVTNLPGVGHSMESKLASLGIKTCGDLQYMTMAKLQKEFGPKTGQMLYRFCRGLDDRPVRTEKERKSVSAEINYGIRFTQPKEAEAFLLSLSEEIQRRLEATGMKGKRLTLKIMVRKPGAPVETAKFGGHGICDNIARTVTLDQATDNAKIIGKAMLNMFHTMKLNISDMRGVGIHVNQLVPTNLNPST
The series is described as follows: fluorescence polarization. For orientation: In fluorescence polarisation assays a small probe gives low polarisation when free and higher when bound to something large.
For TGCTTGCTGTGCTTGCTATGAGATGAT (ssDNA) [ss non-G4 TBA], the Kd worked out at 150 ± 20 nM.
Still for that read-out and setting: in the case of GTGAGATGTTGACCATGGGTGCGTCTGCGGCTGGCTCGAGGC (ssDNA) [ss-42-mer non-G4] it was 270 ± 50 nM.
Consider B1, for which binding was characterised by a dissociation constant (Kd) of 250 ± 30 nM.
On the same count and under the same terms, in the case of B2 it was 300 ± 40 nM; in that of TGAGGGTGGGTAGGGTGGGTGCGTCTGCGGCTGGCTCGAGGC (structured_DNA) [ss-42-mer Myc G4], 87 ± 10 nM; in that of B5, 830 ± 120 nM.
The same measure, in the same setting: for AGCGTGCGTAGCGTGCGTTATGAGATGAT (ssDNA) [ss non-G4 Myc] the value was 650 ± 130 nM; for B6, 230 ± 30 nM.

A further series deals with T3, yRev1 305-746 (Saccharomyces cerevisiae, UniProt P12689 305-746).
T3 sequence: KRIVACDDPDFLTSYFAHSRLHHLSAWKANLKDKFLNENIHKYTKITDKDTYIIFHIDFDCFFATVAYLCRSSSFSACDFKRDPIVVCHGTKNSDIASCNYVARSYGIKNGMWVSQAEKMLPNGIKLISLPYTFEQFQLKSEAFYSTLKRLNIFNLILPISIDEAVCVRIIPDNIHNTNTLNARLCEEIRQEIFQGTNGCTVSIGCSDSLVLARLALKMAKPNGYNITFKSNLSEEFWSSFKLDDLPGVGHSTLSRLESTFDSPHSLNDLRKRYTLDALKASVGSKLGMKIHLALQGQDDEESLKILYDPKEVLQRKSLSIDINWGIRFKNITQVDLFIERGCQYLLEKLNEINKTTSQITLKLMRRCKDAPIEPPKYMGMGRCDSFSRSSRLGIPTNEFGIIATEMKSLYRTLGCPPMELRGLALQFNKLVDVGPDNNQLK
Description: fluorescence polarization.
Regarding TTGCGTTAGCGTTAGCGTTAGCGATATGAGATGAT (ssDNA) [ss non-G4 Telo-4], the Kd worked out at 310 ± 40 nM.
On the same count and under the same terms, for TGCTTGCTGTGCTTGCTATGAGATGAT (ssDNA) [ss non-G4 TBA] the value was 450 ± 70 nM; for GTGAGATGTTGACCATGGGTGCGTCTGCGGCTGGCTCGAGGC (ssDNA) [ss-42-mer non-G4], 340 ± 60 nM.
Take B2: binding was put at a Kd of 460 ± 50 nM.
The same measure, in the same setting: in the case of TGAGGGTGGGTAGGGTGGGTGCGTCTGCGGCTGGCTCGAGGC (structured_DNA) [ss-42-mer Myc G4] it was 230 ± 50 nM; in that of B5, 480 ± 40 nM; in that of AGCGTGCGTAGCGTGCGTTATGAGATGAT (ssDNA) [ss non-G4 Myc], 340 ± 60 nM.
Same read-out and setting: for B6 the value was 450 ± 30 nM.

The Kd is the constant that tells how readily two partners part at equilibrium. Read a low Kd as tighter binding.
